These results are taken from publication doi:10.1101/2025.09.11.675134, “Biodistribution-Driven Discovery Identifies a Glycosidase-Cleavable Linker to Reprogram Radiotheranostics” (bioRxiv, 2025).

Like-named read-outs stand apart in the source and are kept apart here. Positions of bridges follow the written chain, without caps; N, C: chain ends. Non-standard residues stand in square brackets, D forms with d. Residues, ends and D or L forms follow the SMILES beside them. *: point of attachment. DOTA = O=C(O)CN1CCN(CC(=O)O)CCN(CC(=O)*)CCN(CC(=O)O)CC1

The nature of the data set: Ex vivo biodistribution screen of 111In-labeled DOTA-TATE derivatives in normal mice. More on the design: species or system athymic nude mice. The conditions noted are these: 2 h post-injection; for tissue uptake at 2 h: athymic nude, mouse, iv, 1 ug per mouse, total radioactivity; for Relative kidney retention, % rel. to DOTA-TATE: normal mice, 111In-DOTA-TATE set as 100%. Here is the method:
The panel of 10 compounds were then tested in an initial biodistribution screen of 9 organs assessed in non-tumor-bearing mice at specific timepoints following administration of the radioconjugates. Each agent was initially labeled with ^111In, a long-lived gamma-emitting radioisotope suitable for biodistribution studies, with high radiochemical yields and purity (Fig. S12). The compounds were then dosed (1.55 ± 0.12 MBq; 1 μg per mouse) in healthy athymic nude mice via intravenous (i.v.) injection in phosphate-buffered saline (PBS; vehicle). After 2 hours, the mice were sacrificed and ex vivo biodistribution analysis was performed (Fig. 2). […] This was an expected finding because this variant was designed to bind serum albumin.
Radiolabeling and In Vivo Evaluation of DOTA-TATE Variants:
Biodistribution, PET Quantification, and Dosimetry
Radiolabeling: To perform the initial biodistribution screen, radiolabeling of 10 compounds, including DOTA-TATE, was carried out using 111In (Cardinal Health, Arbutus, MD, USA), an affordable and readily available gamma -emitting radioisotope with a moderate half -life (2.83 days), which affords efficient DOTA radiolabeling and facilitates handling. 111InCl3 (28 – 36 MBq) was diluted with 0.4 M NH 4OAc buffer (pH 5.2) and combined with DOTA -TATE variants (20 μg). The solution was mixed well and then incubated at 90 °C for 30 min.
Radiolabeling efficiency and radiochemical purity were determined by radio -TLC and radio - HPLC. Radiochemical yield was >95% and the material was used without further purification.
The specific activity was 1.55 ± 0.12 TBq/g (41.9 ± 3.2 Ci/g). […]
Radio-instant thin-layer chromatography (radio-iTLC) was performed using silicic acid-impregnated glass microfiber paper strips (iTLC-SA, Varian, Lake Forest, CA, USA) as the stationary phase, and 50 mM EDTA in 100 mM NH4OAc (pH 5.5) as the mobile phase, analyzed with a radio-TLC scanner (AR-2000, Eckert-Ziegler, Wilmington, MA, USA). For Ac-225, equilibration was allowed for at least 12 hours before scanning the TLC strips to confirm initial scans. Radio-HPLC analysis (Agilent 1260 Infinity II, Agilent Technologies Inc., Santa Clara, CA, USA) was conducted on a TSK- Octadecyl-4PW column (5 µm, 4.6 mm ID × 15 cm, Tosoh
Co. Tokyo, Japan) with gradient elution using 0.1% trifluoroacetic acid in water as mobile phase A and 0.1% trifluoroacetic acid in acetonitrile as Mobile phase B. The elution sequence was 0-5 […]
PET imaging and biodistribution: For initial biodistribution screen studies, normal mice were administered 1.4 – 1.8 MBq (1 μg) of 111In-DOTA-TATE variants via tail vein injection and biodistribution studies were conducted at 2 hours post -injection (n = 2 – 4 per cohort).
For studies involving three variants (DOTA -TATE, DOTA-MVK(ε)-TATE, and DOTA-β-Gal-TATE), AR42J cells (5 × 10^6 cells per mouse) were subcutaneously inoculated into the right shoulder of the mice. Tumors were allowed to grow for 3 weeks, reaching a volume of 100 –200 mm³ before being used in subsequent experiments. For biodistribution or PET imaging studies, mice bearing subcutaneous AR42J tumors were administered 1.4 – 1.8 MBq (1 μg) of 111In-labeled DOTA-TATE variants or 2.7 – 4.9 MBq (1 μg) of 86Y-labeled DOTA-TATE variants via tail vein injection. Biodistribution studies with 111In-labeled DOTA -TATE variants were performed 1 hour post -injection (n = 3 per cohort), while studies with 86Y-labeled DOTA-TATE variants were conducted at 1, 4, and 24 hours post -injection (n = 3 per cohort). Mice were euthanized by CO2 asphyxiation, and 10 tissues, including tumors, were collected. All samples were weighed and counted on a gamma counter (2480 Wizard 3, Perkin Elmer Inc., Waltham, MA, USA). Results are presented as percentage of injected activity per gram (%IA/g) and mean values ± standard deviations.
PET imaging to assess the uptake of three 86Y-labeled DOTA-TATE variants (2.7 – 4.9 MBq, 1 […]

The mark [1] stands for this setting: blood, normal athymic nude mice, i.v. 1 μg (1.4–1.8 MBq), ex vivo gamma counting, mean, n = 2–4, read-out: Blood uptake.
[2] abbreviates: femur, normal athymic nude mice, i.v. 1 μg, ex vivo, mean, n = 2–4, read-out: Femur uptake.
Setting [3] is: heart, normal athymic nude mice, i.v. 1 μg, ex vivo, mean, n = 2–4, read-out: Heart uptake.
[4] abbreviates: intestine, normal athymic nude mice, i.v. 1 μg, ex vivo, mean, n = 2–4, read-out: Intestine uptake.
Where [5] appears, read: liver, normal athymic nude mice, i.v. 1 μg, ex vivo, mean, n = 2–4, read-out: Liver uptake.
Setting [6] is: lung, normal athymic nude mice, i.v. 1 μg, ex vivo, mean, n = 2–4, read-out: Lung uptake.
Where [7] appears, read: muscle, normal athymic nude mice, i.v. 1 μg, ex vivo, mean, n = 2–4, read-out: Muscle uptake.
Setting [8] is: spleen, normal athymic nude mice, i.v. 1 μg, ex vivo, mean, n = 2–4, read-out: Spleen uptake.

Take `C[C@@H](O)[C@H](NC(=O)[C@@H]1CSSC[C@H](NC(=O)[C@@H](Cc2ccccc2)NC(=O)[C@@H](Cc2ccc(O)cc2)NC(=O)CNC(=O)CN2CCN(CC(=O)O)CCN(CC(=O)O)CCN(CC(=O)O)CC2)C(=O)N[C@@H](Cc2ccc(O)cc2)C(=O)N[C@H](Cc2c[nH]c3ccccc23)C(=O)N[C@@H](CCCCN)C(=O)N[C@@H]([C@@H](C)O)C(=O)N1)C(=O)O` [^111In-DOTA-GY*-TATE, metal not drawn] ({DOTA}-G[dY][dF]CY[dW]KTCT-OH; disulfide 4-9): the “Relative kidney retention, % rel. to DOTA-TATE” value turned out to be 865%. Also, the tissue uptake at 2 h under setting [1] is 0.06 %ID/g. Also, under setting [2], the tissue uptake at 2 h was determined as 0.1 %ID/g. Besides, under setting [3], the tissue uptake at 2 h turned out to be 0.06 %ID/g. In addition, the tissue uptake at 2 h under setting [4] came out at 0.63 %ID/g. The tissue uptake at 2 h under setting [5] came out at 0.17 %ID/g. For the same molecule, the tissue uptake at 2 h under setting [6] is 1.17 %ID/g. Also, under setting [7], the tissue uptake at 2 h came to 0.02 %ID/g. For the same molecule, under setting [8], the tissue uptake at 2 h came out at 0.16 %ID/g.
On to `C[C@@H](O)[C@H](NC(=O)[C@@H]1CSSC[C@H](NC(=O)[C@@H](Cc2ccccc2)NC(=O)[C@H](Cc2ccc(O)cc2)NC(=O)CNC(=O)CN2CCN(CC(=O)O)CCN(CC(=O)O)CCN(CC(=O)O)CC2)C(=O)N[C@@H](Cc2ccc(O)cc2)C(=O)N[C@H](Cc2c[nH]c3ccccc23)C(=O)N[C@@H](CCCCN)C(=O)N[C@@H]([C@@H](C)O)C(=O)N1)C(=O)O` [^111In-DOTA-GY-TATE, metal not drawn] ({DOTA}-GY[dF]CY[dW]KTCT-OH; disulfide 4-9), for which the “Relative kidney retention, % rel. to DOTA-TATE” value amounted to 297%. Also, the tissue uptake at 2 h under setting [1] amounted to 0.09 %ID/g. Besides, under setting [2], the tissue uptake at 2 h turned out to be 0.14 %ID/g. Under setting [3], the tissue uptake at 2 h is 0.09 %ID/g. The tissue uptake at 2 h under setting [4] turned out to be 0.74 %ID/g. Also, the tissue uptake at 2 h under setting [5] turned out to be 0.18 %ID/g. Besides, the tissue uptake at 2 h under setting [6] was determined as 1.07 %ID/g. Under setting [7], the tissue uptake at 2 h was determined as 0.03 %ID/g. Also, the tissue uptake at 2 h under setting [8] was 0.17 %ID/g.
On to `C[C@@H](O)[C@H](NC(=O)[C@@H]1CSSC[C@H](NC(=O)[C@@H](Cc2ccccc2)NC(=O)CCCC(=O)Nc2cc(COC(=O)N(C)CCNC(=O)CN3CCN(CC(=O)O)CCN(CC(=O)O)CCN(CC(=O)O)CC3)ccc2O[C@@H]2O[C@H](C(=O)O)[C@@H](O)[C@H](O)[C@H]2O)C(=O)N[C@@H](Cc2ccc(O)cc2)C(=O)N[C@H](Cc2c[nH]c3ccccc23)C(=O)N[C@@H](CCCCN)C(=O)N[C@@H]([C@@H](C)O)C(=O)N1)C(=O)O` [^111In-DOTA-GlcA-TATE, metal not drawn], for which the “Relative kidney retention, % rel. to DOTA-TATE” value is 147%. Under setting [1], the tissue uptake at 2 h was 0.08 %ID/g. Also, the tissue uptake at 2 h under setting [2] came to 0.1 %ID/g. In addition, the tissue uptake at 2 h under setting [3] was 0.08 %ID/g. Under setting [4], the tissue uptake at 2 h stood at 0.44 %ID/g. Besides, the tissue uptake at 2 h (kidney, normal athymic nude mice, i.v. 1 μg, ex vivo, mean (± SD), n = 2–4, read-out: Kidney uptake) came to 8.88 %ID/g. Also, the tissue uptake at 2 h under setting [5] was determined as 0.13 %ID/g. Besides, the tissue uptake at 2 h under setting [6] turned out to be 0.19 %ID/g. Also, the tissue uptake at 2 h under setting [7] was 0.03 %ID/g. Also, the tissue uptake at 2 h under setting [8] was 0.08 %ID/g.
Take `CSCC[C@H](NC(=O)CN1CCN(CC(=O)O)CCN(CC(=O)O)CCN(CC(=O)O)CC1)C(=O)N[C@H](C(=O)N[C@@H](CCCCN)C(=O)N[C@H](Cc1ccccc1)C(=O)N[C@H]1CSSC[C@@H](C(=O)N[C@H](C(=O)O)[C@@H](C)O)NC(=O)[C@H]([C@@H](C)O)NC(=O)[C@H](CCCCN)NC(=O)[C@@H](Cc2c[nH]c3ccccc23)NC(=O)[C@H](Cc2ccc(O)cc2)NC1=O)C(C)C` [^111In-DOTA-MVK-TATE, metal not drawn] ({DOTA}-MVK[dF]CY[dW]KTCT-OH; disulfide 5-10): the “Relative kidney retention, % rel. to DOTA-TATE” value was 1251%. Further, the tissue uptake at 2 h under setting [1] was 0.09 %ID/g. Besides, the tissue uptake at 2 h under setting [2] is 0.25 %ID/g. Besides, the tissue uptake at 2 h under setting [3] amounted to 0.07 %ID/g. The tissue uptake at 2 h under setting [4] stood at 0.78 %ID/g. Further, the tissue uptake at 2 h under setting [5] worked out at 0.25 %ID/g. For the same molecule, the tissue uptake at 2 h under setting [6] stood at 0.51 %ID/g. Besides, the tissue uptake at 2 h under setting [7] stood at 0.02 %ID/g. Under setting [8], the tissue uptake at 2 h turned out to be 0.18 %ID/g. This molecule also came in with a Kidney uptake (normal athymic nude mice, i.v. 1 μg, ex vivo, mean (± SD), n = 2–4) of 75.65 %IA/g.
For `C[C@@H](O)[C@H](NC(=O)[C@@H]1CSSC[C@H](NC(=O)[C@@H](Cc2ccccc2)NC(=O)CCCC(=O)Nc2cc(COC(=O)N(C)CCNC(=O)CN3CCN(CC(=O)O)CCN(CC(=O)O)CCN(CC(=O)O)CC3)ccc2O[C@@H]2O[C@H](CO)[C@@H](O)[C@H](O)[C@H]2O)C(=O)N[C@@H](Cc2ccc(O)cc2)C(=O)N[C@H](Cc2c[nH]c3ccccc23)C(=O)N[C@@H](CCCCN)C(=O)N[C@@H]([C@@H](C)O)C(=O)N1)C(=O)O` [^111In-DOTA-β-Glu-TATE, metal not drawn], the “Relative kidney retention, % rel. to DOTA-TATE” value is given as 105%. For the same molecule, the tissue uptake at 2 h (in vivo, normal athymic nude mice, i.v. 1 μg (1.4–1.8 MBq), ex vivo gamma counting, mean, n = 2–4, read-out: Blood uptake) came out at 0.09 %ID/g. Also, the tissue uptake at 2 h (in vivo, normal athymic nude mice, i.v. 1 μg, ex vivo, mean (± SD), n = 2–4, read-out: Kidney uptake) was 6.34 %ID/g. Moreover, where the note is “in vivo, normal athymic nude mice, i.v. 1 μg, ex vivo, mean, n = 2–4, read-out: Femur uptake”, the tissue uptake at 2 h turned out to be 0.21 %ID/g. The tissue uptake at 2 h (in vivo, normal athymic nude mice, i.v. 1 μg, ex vivo, mean, n = 2–4, read-out: Heart uptake) was determined as 0.07 %ID/g. Further, under “in vivo, normal athymic nude mice, i.v. 1 μg, ex vivo, mean, n = 2–4, read-out: Intestine uptake”, the tissue uptake at 2 h was 1.07 %ID/g. In addition, where the note is “in vivo, normal athymic nude mice, i.v. 1 μg, ex vivo, mean, n = 2–4, read-out: Liver uptake”, the tissue uptake at 2 h is 0.19 %ID/g. Further, the tissue uptake at 2 h (in vivo, normal athymic nude mice, i.v. 1 μg, ex vivo, mean, n = 2–4, read-out: Lung uptake) came to 0.51 %ID/g. Besides, the tissue uptake at 2 h (in vivo, normal athymic nude mice, i.v. 1 μg, ex vivo, mean, n = 2–4, read-out: Muscle uptake) is 0.03 %ID/g. Moreover, the tissue uptake at 2 h (in vivo, normal athymic nude mice, i.v. 1 μg, ex vivo, mean, n = 2–4, read-out: Spleen uptake) turned out to be 0.16 %ID/g.
